The values below come from patent publication US20250082756A1 (Regeneron, published 2025).

T1: MUC16 ectodomain stably expressed on engineered RD tumor cells (high, medium or low levels) (human)
T1 chain: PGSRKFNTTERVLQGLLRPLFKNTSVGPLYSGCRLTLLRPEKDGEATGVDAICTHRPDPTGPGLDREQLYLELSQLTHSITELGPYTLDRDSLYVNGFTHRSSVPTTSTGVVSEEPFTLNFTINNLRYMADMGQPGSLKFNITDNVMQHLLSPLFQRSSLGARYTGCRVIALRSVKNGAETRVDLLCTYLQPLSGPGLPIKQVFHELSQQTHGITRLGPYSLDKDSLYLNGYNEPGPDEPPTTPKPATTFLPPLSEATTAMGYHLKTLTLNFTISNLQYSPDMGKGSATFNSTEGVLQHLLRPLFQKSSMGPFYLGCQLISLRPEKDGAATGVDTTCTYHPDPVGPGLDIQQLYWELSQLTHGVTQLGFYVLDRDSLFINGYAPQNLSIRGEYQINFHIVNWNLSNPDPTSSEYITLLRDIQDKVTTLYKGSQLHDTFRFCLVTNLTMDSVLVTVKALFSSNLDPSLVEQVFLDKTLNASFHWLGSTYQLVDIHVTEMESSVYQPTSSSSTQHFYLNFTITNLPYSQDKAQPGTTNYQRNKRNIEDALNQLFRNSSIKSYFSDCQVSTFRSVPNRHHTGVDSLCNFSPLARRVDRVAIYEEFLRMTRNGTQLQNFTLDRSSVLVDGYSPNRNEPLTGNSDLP

T2: MUC16-nub ectodomain antigen (human MUC16 membrane proximal domain P13810-P14451 having a myc-myc-his tag) (human)
T2 chain: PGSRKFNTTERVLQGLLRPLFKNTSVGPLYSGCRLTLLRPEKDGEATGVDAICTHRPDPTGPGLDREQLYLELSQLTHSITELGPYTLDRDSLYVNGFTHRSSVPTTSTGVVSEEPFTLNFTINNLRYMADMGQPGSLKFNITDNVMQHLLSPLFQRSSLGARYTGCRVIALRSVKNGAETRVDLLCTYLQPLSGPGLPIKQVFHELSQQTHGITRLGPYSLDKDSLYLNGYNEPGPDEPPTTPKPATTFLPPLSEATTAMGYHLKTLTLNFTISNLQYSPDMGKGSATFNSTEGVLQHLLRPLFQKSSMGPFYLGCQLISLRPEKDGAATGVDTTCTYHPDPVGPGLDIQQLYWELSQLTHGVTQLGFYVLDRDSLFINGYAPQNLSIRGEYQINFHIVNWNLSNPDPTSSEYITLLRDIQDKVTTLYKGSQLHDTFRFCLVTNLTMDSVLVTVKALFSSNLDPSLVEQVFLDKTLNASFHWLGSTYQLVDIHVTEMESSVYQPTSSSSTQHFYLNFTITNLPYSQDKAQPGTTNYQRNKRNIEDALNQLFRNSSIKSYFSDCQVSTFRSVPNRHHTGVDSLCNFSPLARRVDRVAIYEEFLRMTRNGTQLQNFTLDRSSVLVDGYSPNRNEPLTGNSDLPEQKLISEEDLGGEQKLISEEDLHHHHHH

B1: pBB4015 CAR (8808 L-H; BBz) (other)
chain: EIVLTQSPDTLSLSPGERATLSCRASQSLSSNYLAWYRQKPGQAPRLLIYGISSRATGIPDRFSGSGSGTDFTLTISRLEPEDFAVYYCQQYGSSPWTFGQGTKVEIKGGGGSGGGGSGGGGSQVQLVESGGGVVQPGRSLRLSCVASGFTFSNYGIHWVRQAPGKGLEWVAVISDDGSFKFYADSVKGRFTISRDNSKNTLYLQMNSLRVEDSAVYHCAKWQHNWNDGGFDYWGQGTLVTVSSTTTPAPRPPTPAPTIASQPLSLRPEACRPAAGGAVHTRGLDFACDIYIWAPLAGTCGVLLLSLVITLYCKRGRKKLLYIFKQPFMRPVQTTQEEDGCSCRFPEEEEGGCELRVKFSRSADAPAYQQGQNQLYNELNLGRREEYDVLDKRRGRDPEMGGKPRRKNPQEGLYNELQKDKMAEAYSEIGMKGERRRGKGHDGLYQGLSTATKDTYDALHMQALPPR
B2: Anti-MUC16 8804 (antibody, V domains shown)
VH: EVQLVESGGGLVQPGRSLRLSCTGSGLTFGDYGMSWVRQAPGKGLEWVGFIRSKGYGGTTEYAASVKGRFTISRDDSKSTAYLQMNSLKTEDTAVYYCTSGGYDSSVHYYYYYYAMDVWGQGTTVTVSS
VL: not shown
notes: also called BBz) and pBB4013 (8804 L-H
B3: Anti-MUC16 8813 (antibody, V domains shown)
VH: QVQLVQSGAEVKKPGASVKVSCKAFGYTLTGYYIHWVRQAPGQGLEWMGWINPNNGGTNYAQKFQGRVTMTRDKSISTAYMELSRLRSDDTAVYYCARSLELLPDGMDVWGQGTTVTVSS
VL: not shown
notes: also called BBz) and pBB4019 (8813 L-H
B4: Anti-MUC16 8799 (antibody, V domains shown)
VH: EVQLVESGGGLEQPGRSLRLSCTASGFAFGDHTMSWVRQAPGKGLEWVGFIRSRAYGGTTEYAASVKGRFTISRDDSKSIAYLQMDSLKTEDTAVYYCTSGGYDSSLHYYYYYHGMDVWGRGTTVTVSS
VL: EIVLTQSPGTLSLSPGERATLSCRASQSITSSYLAWYQQRPGQAPRLLIYGASSRATGIPDRFSGSGSGTDFTLTISRLEPEDFAVYYCQQYGSSPWTFGQGTKVEIK
notes: also called BBz) and pBB4011 (8799 L-H
B5: Anti-MUC16 8808 (antibody, V domains shown)
VH: QVQLVESGGGVVQPGRSLRLSCVASGFTFSNYGIHWVRQAPGKGLEWVAVISDDGSFKFYADSVKGRFTISRDNSKNTLYLQMNSLRVEDSAVYHCAKWQHNWNDGGFDYWGQGTLVTVSS
VL: EIVLTQSPDTLSLSPGERATLSCRASQSLSSNYLAWYRQKPGQAPRLLIYGISSRATGIPDRFSGSGSGTDFTLTISRLEPEDFAVYYCQQYGSSPWTFGQGTKVEIK
notes: also called BBz) and pBB4015 (8808 L-H
B6: Anti-MUC16 8810 (antibody, V domains shown)
VH: EVQLVESGGALVQPGGSLRLSCAASGFTFSSYAMHWVRQAPGKGLEFVSTISYNGGTTYYADSVKGRFTVSRDNSKNTVFLRMGSLRTEDMAVYYCARAAAPWGQGTLVTVSS
VL: EIVLTQSPDTLSLSPGERATLSCRASQSVSNRYLAWYQQKPGQAPRLLIYGASSRATGIPDRFSGSGSGTDFTLTISRLEPEDFAVYYCHQYGSSPWTFGQGTKVEIK
notes: also called BBz) and pBB4017 (8810 L-H
B7: Anti-MUC16 7138 (antibody, V domains shown)
VH: QVQLVQSGAEVKKPGASVKVSCKASGYTFTSSDINWVRQATGQGLEWVGWMNPNYGYTGSARKFQDRVTMTRNTSLSTAYLELHSLRSEDTAVYYCARVTYCSSVTSCFRPFTYWGQGTLVTVSA
VL: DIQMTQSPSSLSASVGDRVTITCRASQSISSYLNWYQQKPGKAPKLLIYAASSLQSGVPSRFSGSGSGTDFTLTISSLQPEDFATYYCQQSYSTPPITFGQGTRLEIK
notes: also called BBz) and pBB4003 (7138 L-H
B8: Anti-MUC16 7135 (antibody, V domains shown)
VH: EVQLVESGGGLVQAGGSLRLSCAASGFTFSYHEMNWVRQAPGKGLEWVSYIGSRGTTKHYADPVKGRFTISRDNAKNSLYLQMNSLRAEDTAVYYCASEVGSILGYSMDVWGQGTTVTVSS
VL: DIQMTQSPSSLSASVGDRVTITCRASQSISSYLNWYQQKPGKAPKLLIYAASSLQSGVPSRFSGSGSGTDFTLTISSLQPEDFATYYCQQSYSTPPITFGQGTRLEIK
notes: also called BBz) and pBB4001 (7135 L-H
B9: Anti-MUC16 8794 (antibody, V domains shown)
VH: QVQLVESGGGLVKPGGSLRLSCAASGFTFRDYSMSWIRQAPGKGLEWVSYVTFFNSAIYYADSVKGRFTISRDNAKNSLYLQMNSLRAEDTAVYYCAREREPIVGGFDYWGQGTLVTVSS
VL: DIQMTQSPSSLSASVGDRVTITCRASQSINSYLNWYQQKPGKAPKLLIYAASSLQGGVPSRFSGGGSGTDFTLTITSLQPEDFATFYCQQSYSSPPITFGQGTRLEIK
notes: also called BBz) and pBB4009 (8794 L-H
B10: Anti-MUC16 8755 (antibody, V domains shown)
VH: EVQLVESGGGLVQPGRSLRLSCAASGFTFNDYAMHWVRQSPGKGLEWVSGIDWNGGSIDYADSVKGRFTISRDTAKNSLYLQMNSLKVEDTALYYCAKDIGHWNYIGGMDVWGQGTTVTVSS
VL: DIQMTQSPSSLSASVGDRVTITCRASQSINIYLNWYQQKPGKAPKFLIYAASSLQTGVPSRFSGSGSGTDFTLTISSLEPEDFATYYCQHSYSTPPITFGQGTRLEIK
notes: also called BBz) and pBB4005 (8755 L-H
B11: Anti-MUC16 8767 (antibody, V domains shown)
VH: QVQLVESGGGLVKPGGSLRLSCAASGFTFSNYYMSWVRQAPGKGLEWISYISGRGSTIFYADSVKGRITISRDNAKNSLFLQMNSLRAEDTAVYFCVKDRGGYSPYWGQGTLVTVSS
VL: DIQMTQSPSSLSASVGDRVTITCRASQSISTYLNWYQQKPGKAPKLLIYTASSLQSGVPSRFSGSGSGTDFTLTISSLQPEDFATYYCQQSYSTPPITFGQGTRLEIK
notes: also called BBz) and pBB4007 (8767 L-H

One assay deals with T1, MUC16 ectodomain stably expressed on …. Nature of the assay: cell-based or functional assay.
On to B1, for which the “percent (%) of tumor cell killing, RD low antigen positive tumor cells, 2.5:1 E:T ratio, 72 hours, impedance analyzer” value was below 60 % cytotoxicity and the “percent (%) of tumor cell killing, RD medium or high antigen positive tumor cells, all E:T ratios, 72 hours, impedance analyzer” value was above 70 % cytotoxicity.

Another assay deals with T2, MUC16-nub ectodomain antigen (human …). Put plainly: cell-based or functional assay.
As to B1, the “EC50 (read off the curve); IFNγ release of BB4015 CAR T cells against the coating concentration of MUC16 nub” value is around 50 ng/mL.

For another assay the target is unchanged. Nature of the assay: Binder Kd of Table 3; method and antigen not described.
With B2, the Kd (in general, a measure of binding affinity in units of concentration) was 1.86 nM.

Consider B3, for which the Kd is 0.32 nM.

For the molecule B4, the Kd is 0.826 nM.

In the case of B5, the Kd came to 0.277 nM.

In the case of B6, the Kd was 1.12 nM.

Regarding B7, the equilibrium dissociation constant (Kd) came out at 0.321 nM.

B8 registered a Kd of 10.5 nM.

Regarding B9, the affinity, expressed as Kd, was 0.554 nM.

B10 had a Kd of 0.124 nM.

For B11, the Kd was found to be 1.01 nM.
